PMC4434323

Tests used:
[1] = target: T1, ref-2 (C47C12.3) (Caenorhabditis elegans) (UniProt Q7JNM3)
T1 sequence: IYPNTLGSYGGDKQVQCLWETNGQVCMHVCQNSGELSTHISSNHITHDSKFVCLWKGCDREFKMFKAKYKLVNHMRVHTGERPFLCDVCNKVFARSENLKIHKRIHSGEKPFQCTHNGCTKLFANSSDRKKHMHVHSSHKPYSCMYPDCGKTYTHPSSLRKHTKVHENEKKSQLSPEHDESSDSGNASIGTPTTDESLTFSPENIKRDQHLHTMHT

[2] = target: T2, F17A9.3 (F17A9.3) (Caenorhabditis elegans) (UniProt O16213)
T2 sequence: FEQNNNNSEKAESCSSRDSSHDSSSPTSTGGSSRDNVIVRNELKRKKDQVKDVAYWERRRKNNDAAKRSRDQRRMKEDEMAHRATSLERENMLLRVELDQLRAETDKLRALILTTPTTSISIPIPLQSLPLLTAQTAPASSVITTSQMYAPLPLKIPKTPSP

[3] = target: T3, atf-2 (K08F8.2) (Caenorhabditis elegans) (UniProt Q21361)
T3 sequence: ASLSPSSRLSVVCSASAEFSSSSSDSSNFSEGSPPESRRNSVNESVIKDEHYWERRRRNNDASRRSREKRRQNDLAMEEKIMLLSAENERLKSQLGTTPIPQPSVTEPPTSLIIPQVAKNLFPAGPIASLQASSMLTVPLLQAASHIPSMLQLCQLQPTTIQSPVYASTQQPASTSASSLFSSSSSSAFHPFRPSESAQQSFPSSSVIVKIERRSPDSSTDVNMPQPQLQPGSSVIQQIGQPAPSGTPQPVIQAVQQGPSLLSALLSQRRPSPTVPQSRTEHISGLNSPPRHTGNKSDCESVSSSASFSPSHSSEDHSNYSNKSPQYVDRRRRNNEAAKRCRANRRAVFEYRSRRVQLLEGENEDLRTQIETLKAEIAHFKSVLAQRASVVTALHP

[4] = target: T4, T07C12.11 (T07C12.11) (Caenorhabditis elegans) (UniProt G5EGG9)
T4 sequence: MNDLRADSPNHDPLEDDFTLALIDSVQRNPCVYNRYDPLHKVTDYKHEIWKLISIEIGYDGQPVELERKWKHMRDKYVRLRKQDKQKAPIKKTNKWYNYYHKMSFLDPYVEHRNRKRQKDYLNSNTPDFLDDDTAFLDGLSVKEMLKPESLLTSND

[5] = target: T5, Y51H4A.4 (Y51H4A.4) (Caenorhabditis elegans) (UniProt Q9NAE4)
T5 sequence: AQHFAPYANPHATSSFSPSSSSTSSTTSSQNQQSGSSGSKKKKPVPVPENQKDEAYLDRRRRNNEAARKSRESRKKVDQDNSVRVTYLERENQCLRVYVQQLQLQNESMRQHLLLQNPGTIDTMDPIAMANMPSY

| Sequence | binding signal (PBM E-score (-0.5 to 0.5)) [1] | binding signal (PBM E-score (-0.5 to 0.5)) [2] | binding signal (PBM E-score (-0.5 to 0.5)) [3] | binding signal (PBM E-score (-0.5 to 0.5)) [4] | binding signal (PBM E-score (-0.5 to 0.5)) [5] |
| --- | --- | --- | --- | --- | --- |
| CAGCGGGA (double strand) [8-mer CAGCGGGA] | 0.483 | – | – | – | – |
| TTACGTAA (double strand) [8-mer TTACGTAA] | – | 0.498 | 0.478 | 0.496 | 0.498 |
